Results on 14 molecules are retold here after patent publication US20150344570A1 (published 2015).

For assay [1], the target named is T1, FcγRIIb extracellular domain with C-terminal His tag (human, UniProt P31994 43-217).
T1 construct: extracellular domain; Soluble receptor expressed in FreeStyle293 cells and used as analyte in Biacore; also called FcgRIIb; 2b; not shown: His tag attached to the C terminus
T1 sequence (looked up): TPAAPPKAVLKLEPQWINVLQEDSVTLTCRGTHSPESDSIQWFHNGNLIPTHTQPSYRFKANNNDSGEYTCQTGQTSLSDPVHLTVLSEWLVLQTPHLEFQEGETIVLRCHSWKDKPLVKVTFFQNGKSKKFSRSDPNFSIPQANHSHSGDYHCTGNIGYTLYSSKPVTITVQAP
In words: SPR (Biacore), antibody captured, FcγR as analyte; binding activity relative to control heterodimerized antibody. As for the experimental part: (§1) The heterodimerized antibodies He Abs in which one of the H chains was introduced with an alteration were assayed for their binding activities to each activating FcγR and inhibitory FcγR according to the method described in Example 4. […] The activating FcγRs in FIGS. 26, 27, 28, and 29 are FcγRIa, FcγRIIa (R), FcγRIIa (H), and FcγRIIIa, respectively.
(§2) Analysis of interaction between objective antibody and the FcγR was carried out using Biacore T100 (GE Healthcare). HBS-EP+ (GE Healthcare) was used as the running buffer, and the measurement temperature was set to 25° C. Chips produced by immobilizing the antigen peptide by the amine coupling method to a Series S Sencor Chip CM5 (GE Healthcare), or alternatively, chips produced by allowing preliminarily biotinylated antigen peptides to interact with and immobilize onto a Series S Sensor Chip SA (certified) (GE Healthcare) were used. Antibodies of interest were captured onto an antigen peptide-immobilized chip, and allowed to interact to each FcγR diluted with running buffer. To regenerate and repeatedly use the chip, the antibodies captured on the chip were washed off by reacting 10 mM glycine-HCl, pH 1.5.
On the technique in general: In SPR one partner is held on a chip, and binding of the other changes the refractive index at the surface.

Assay [2] addresses T2, FcγRIIIa extracellular domain with C-terminal His tag (human, UniProt P08637 17-208).
T2 construct: extracellular domain; also called FcgRIIIa; 3a; not shown: His tag attached to the C terminus
The assay is described as above. As for the experimental part:
as §1, §2

Assay [3] addresses T2, FcγRIIIa extracellular domain with …. In words: SPR (Biacore); He/Con_3a divided by He/Con_2b (FcγRIIIa over FcγRIIb). The method, then: as §1, §2
Assay [4] addresses T3, FcγRIa (human, UniProt P12314 16-292).
T3 construct: extracellular domain; Soluble extracellular domain with C-terminal His tag, used as analyte in Biacore; also called FcgRI; 1a; not shown: His tag attached to the C terminus
Kind of assay: SPR (Biacore), antibody captured, FcγR as analyte; relative to GpH7-A5/GpH7-B3/GpL16-k0 = 100.

Assay [5] addresses T4, FcγRIIb (human, UniProt P31994 43-217).
T4 construct: extracellular domain; Soluble extracellular domain with C-terminal His tag, used as analyte in Biacore; also called FcgRIIb; 2b; not shown: His tag attached to the C terminus
T4 sequence (looked up): T1 sequence (looked up)
Described as above.

The target of assay [6] is T3, FcγRIa. Kind of assay: SPR (Biacore); He/Con_1a divided by He/Con_2b (binding to FcγRIa against binding to FcγRIIb). The method, then: as §1, §2

T3 sequence (P12314 16-292): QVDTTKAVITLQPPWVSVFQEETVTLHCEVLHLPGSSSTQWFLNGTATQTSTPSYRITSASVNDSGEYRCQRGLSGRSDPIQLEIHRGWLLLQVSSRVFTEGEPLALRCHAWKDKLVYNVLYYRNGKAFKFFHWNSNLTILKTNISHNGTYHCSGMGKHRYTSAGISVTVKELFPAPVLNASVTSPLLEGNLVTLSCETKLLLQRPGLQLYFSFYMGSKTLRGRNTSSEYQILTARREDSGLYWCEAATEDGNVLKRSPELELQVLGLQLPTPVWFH
T2 sequence (P08637 17-208): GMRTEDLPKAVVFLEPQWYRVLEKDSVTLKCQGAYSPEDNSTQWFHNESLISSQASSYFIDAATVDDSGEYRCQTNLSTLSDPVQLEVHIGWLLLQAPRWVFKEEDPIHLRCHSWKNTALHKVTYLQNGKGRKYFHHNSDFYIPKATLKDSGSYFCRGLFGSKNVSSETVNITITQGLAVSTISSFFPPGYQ

B1: GpH7-A5/GpH7-B3 variant D270_13S/GpL16-k0 (antibody, human IgG1, kappa)
heavy 1: not shown
heavy 2: not shown
light: DIVMTQSPLSLPVTPGEPASISCQASESLVHSNRNTYLHWYLQKPGQSPQLLIYKVSNRFSGVPDRFSGSGSGTDFTLKISRVEAEDVGVYYCSQNTHVPPTFGQGTKVEIERTVAAPSVFIFPPSDEQLKSGTASVVCLLNNFYPREAKVQWKVDNALQSGNSQESVTEQDSKDSTYSLSSTLTLSKADYEKHKVYACEVTHQGLSSPVTKSFNRGEC
notes: Heterodimerized anti-glypican-3 IgG1 with the alteration in only one H chain; also called He Ab
For the molecule B1, in assay [1], the He/Con_2b was 44.2 % of GpH7-A5/GpH7-B3/GpL16-k0 (=100). The He/Con_3a in assay [2] is 56.7 % of GpH7-A5/GpH7-B3/GpL16-k0 (=100). Moreover, the He_3a/2b in assay [3] turned out to be 1.28 ratio.

B2: GpH7-A5/GpH7-B3 variant G237_02A/GpL16-k0 (antibody, human IgG1, kappa)
heavy 1: not shown
heavy 2: not shown
light: B1 light
notes: Heterodimerized anti-glypican-3 IgG1; alteration in the GpH7-B3 chain only; also called He Ab
With B2, the He/Con_1a in assay [4] is 90.3 % of control (=100). In addition, the He/Con_2b in assay [5] was 124 % of control (=100). Also, the “He_1a/2b (Ia/IIb)” value in assay [6] was determined as 0.73 ratio.

B3: GpH7-A5/GpH7-B3 variant E269_19Q/GpL16-k0 (antibody, human IgG1, kappa)
heavy 1: not shown
heavy 2: not shown
light: B1 light
notes: as for B1
As to B3, in assay [1], the He/Con_2b was 44.3 % of GpH7-A5/GpH7-B3/GpL16-k0 (=100). Besides, the He/Con_3a in assay [2] was 65 % of GpH7-A5/GpH7-B3/GpL16-k0 (=100). In assay [3], this molecule displayed a He_3a/2b of 1.47 ratio.

B4: GpH7-A5/GpH7-B3 variant G237_08L/GpL16-k0 (antibody, human IgG1, kappa)
heavy 1: not shown
heavy 2: not shown
light: B1 light
notes: as for B2
Consider B4, for which the He/Con_1a in assay [4] was 79.6 % of control (=100). Also, the He/Con_2b in assay [5] was 148 % of control (=100). For the same molecule, the “He_1a/2b (Ia/IIb)” value in assay [6] came to 0.54 ratio.

B5: GpH7-A5/GpH7-B3 variant G236_09D/GpL16-k0 (antibody, human IgG1, kappa)
heavy 1: not shown
heavy 2: not shown
light: B1 light
notes: as for B2
Turning to B5, the He/Con_1a in assay [4] was 96.6 % of control (=100). The He/Con_2b in assay [5] is 167 % of control (=100). Besides, in assay [6], the “He_1a/2b (Ia/IIb)” value is 0.58 ratio.

B6: GpH7-A5/GpH7-B3 variant G237_18N/GpL16-k0 (antibody, human IgG1, kappa)
heavy 1: not shown
heavy 2: not shown
light: B1 light
notes: as for B2
Consider B6, for which the He/Con_1a in assay [4] was 82.5 % of control (=100). Besides, the He/Con_2b in assay [5] is 180 % of control (=100). For the same molecule, the “He_1a/2b (Ia/IIb)” value in assay [6] stood at 0.46 ratio.

B7: GpH7-A5/GpH7-B3 variant E269_12R/GpL16-k0 (antibody, human IgG1, kappa)
heavy 1: not shown
heavy 2: not shown
light: B1 light
notes: as for B1
Turning to B7, in assay [1], the He/Con_2b is 25.2 % of GpH7-A5/GpH7-B3/GpL16-k0 (=100). Further, the He/Con_3a in assay [2] was 43.2 % of GpH7-A5/GpH7-B3/GpL16-k0 (=100). This molecule also came in with a He_3a/2b in assay [3] of 1.72 ratio.

B8: GpH7-A5/GpH7-B3 variant G237_15Y/GpL16-k0 (antibody, human IgG1, kappa)
heavy 1: not shown
heavy 2: not shown
light: B1 light
notes: as for B2
In the case of B8, in assay [4], the He/Con_1a is 79.6 % of control (=100). For the same molecule, the He/Con_2b in assay [5] was 152 % of control (=100). Besides, in assay [6], the “He_1a/2b (Ia/IIb)” value stood at 0.52 ratio.

B9: GpH7-A5/GpH7-B3 variant E269_18N/GpL16-k0 (antibody, human IgG1, kappa)
heavy 1: not shown
heavy 2: not shown
light: B1 light
notes: as for B1
Turning to B9, in assay [1], the He/Con_2b was 44.8 % of GpH7-A5/GpH7-B3/GpL16-k0 (=100). Further, the He/Con_3a in assay [2] was 57.8 % of GpH7-A5/GpH7-B3/GpL16-k0 (=100). The molecule further yielded a He_3a/2b in assay [3] of 1.29 ratio.

B10: GpH7-A5/GpH7-B3 variant E269_16H/GpL16-k0 (antibody, human IgG1, kappa)
heavy 1: not shown
heavy 2: not shown
light: B1 light
notes: as for B1
For B10, the He/Con_2b in assay [1] was 38.5 % of GpH7-A5/GpH7-B3/GpL16-k0 (=100). Moreover, the He/Con_3a in assay [2] is 51.2 % of GpH7-A5/GpH7-B3/GpL16-k0 (=100). This molecule displayed a He_3a/2b in assay [3] of 1.33 ratio.

B11: GpH7-A5/GpH7-B3 variant G237_10E/GpL16-k0 (antibody, human IgG1, kappa)
heavy 1: not shown
heavy 2: not shown
light: B1 light
notes: as for B2
B11: the He/Con_1a in assay [4] is 75.1 % of control (=100). Further, the He/Con_2b in assay [5] is 114 % of control (=100). In assay [6], the “He_1a/2b (Ia/IIb)” value came to 0.66 ratio.

B12: GpH7-A5/GpH7-B3 variant G237_09D/GpL16-k0 (antibody, human IgG1, kappa)
heavy 1: not shown
heavy 2: not shown
light: B1 light
notes: as for B2
With B12, the He/Con_1a in assay [4] is 84 % of control (=100). Further, the He/Con_2b in assay [5] was 223 % of control (=100). Further, in assay [6], the “He_1a/2b (Ia/IIb)” value came out at 0.38 ratio.

B13: GpH7-A5/GpH7-B3 variant E269_13S/GpL16-k0 (antibody, human IgG1, kappa)
heavy 1: not shown
heavy 2: not shown
light: B1 light
notes: as for B1
As to B13, the He/Con_2b in assay [1] is 47.8 % of GpH7-A5/GpH7-B3/GpL16-k0 (=100). Besides, the He/Con_3a in assay [2] is 62.7 % of GpH7-A5/GpH7-B3/GpL16-k0 (=100). In addition, the He_3a/2b in assay [3] was 1.31 ratio.

B14: GpH7-A5/GpH7-B3 variant Q295_01G/GpL16-k0 (antibody, human IgG1, kappa)
heavy 1: not shown
heavy 2: not shown
light: B1 light
notes: as for B1
Take B14: the He/Con_2b in assay [1] was 46 % of GpH7-A5/GpH7-B3/GpL16-k0 (=100). Also, the He/Con_3a in assay [2] is 73 % of GpH7-A5/GpH7-B3/GpL16-k0 (=100). The molecule further gave a He_3a/2b in assay [3] of 1.59 ratio.
